Like-named read-outs stand apart in the source and are kept apart here.
How the values were obtained:
[1] = target: T1, p300CH1, CH1 domain of human p300 (residues 323–424), untagged (human, UniProt Q09472 323-424); experiment: AUC
[2] = target: T1, p300CH1, CH1 domain of human p300 …; experiment: AUC; remark: listed apart in the source
[3] = target: T2, untagged HPV16-E7_(1–98) (human papillomavirus 16 (HPV16)), P03129; experiment: AUC; details: remark: other sources report otherwise
T2 chain: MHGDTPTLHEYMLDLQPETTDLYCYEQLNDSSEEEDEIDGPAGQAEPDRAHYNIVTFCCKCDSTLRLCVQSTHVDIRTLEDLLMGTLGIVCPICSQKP

[4] = target: T1, p300CH1, CH1 domain of human p300 …; experiment: pull-down

T1 sequence (Q09472 323-424): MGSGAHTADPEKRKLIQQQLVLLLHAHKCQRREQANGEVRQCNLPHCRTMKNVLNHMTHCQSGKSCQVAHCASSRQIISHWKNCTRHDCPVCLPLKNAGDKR

B1: untagged Ad5-E1A_(1–77) (domain or fragment)
chain: MRHIICHGGVITEEMAASLLDQLIEEVLADNLPPPSHFEPPTLHELYDLDVTAPEDPNEEAVSQIFPDSVMLAVQEG
stoichiometry N [1]: 1

B2: 6xHis-Ad5-E1A_(1–189) (domain or fragment)
chain: MRHIICHGGVITEEMAASLLDQLIEEVLADNLPPPSHFEPPTLHELYDLDVTAPEDPNEEAVSQIFPDSVMLAVQEGIDLLTFPPAPGSPEPPHLSRQPEQPEQRALGPVSMPNLVPEVIDLTCHEAGFPPSDDEDEEGEEFVLDYVEHPGHGCRSCHYHRRNTGDPDIMCSLCYMRTCGMFVYSPVSE
stoichiometry N [1]: 1

B3: untagged HPV16-E7_(1–98) (natural protein)
chain: T2 chain
stoichiometry N [2]: 1
stoichiometry N [3]: 2

B4: 6xHis-Ad5-E1A_(1–138) (domain or fragment)
chain: MRHIICHGGVITEEMAASLLDQLIEEVLADNLPPPSHFEPPTLHELYDLDVTAPEDPNEEAVSQIFPDSVMLAVQEGIDLLTFPPAPGSPEPPHLSRQPEQPEQRALGPVSMPNLVPEVIDLTCHEAGFPPSDDEDEE
stoichiometry N [1]: 1

B5: untagged HPV16-E7_(1–51) (domain or fragment)
chain: MHGDTPTLHEYMLDLQPETTDLYCYEQLNDSSEEEDEIDGPAGQAEPDRAH
stoichiometry N [2]: 1

MHGDTPTLHEYMLDLQPETTDLYCYEQLNDSSEEEDEIDGPAGQAE (domain or fragment) [GST-HPV16-E7_(1–46)]
binding result [4]: binds
